{
  "source": "paper PMC3934934",
  "about": "“The Self-Interaction of a Nodavirus Replicase Is Enhanced by Mitochondrial Membrane Lipids” (PLoS ONE, 2014)",
  "key": {"[1]": {"molecular_target": "T1, MBP-protA fragment aa 481–659 (Wuhan nodavirus (WhNV), UniProt Q3KSM3 481-659)", "T1 construct": "source: E. coli strain TB1, purified (amylose resin); not shown: MBP, N-terminal, kept", "T1 sequence": "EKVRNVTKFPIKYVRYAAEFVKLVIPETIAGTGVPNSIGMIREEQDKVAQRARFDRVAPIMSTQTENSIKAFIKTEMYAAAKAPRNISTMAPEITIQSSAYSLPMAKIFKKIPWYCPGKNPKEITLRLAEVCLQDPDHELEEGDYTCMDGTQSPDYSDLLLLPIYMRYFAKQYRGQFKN", "experiment": "pull-down; MBP fusion protein (1 µM) held on amylose resin, His-tagged protein (1 µM) in vitro translated in rabbit reticulocyte lysate; room temperature, 4 hrs; no lipids; Western blot with anti-His; signals given as % of FL to FL protein A self-interaction", "conditions": "one partner purified"}, "[2]": {"molecular_target": "T2, MBP-protA fragment aa 1–254 (Wuhan nodavirus (WhNV), UniProt Q3KSM3 1-254)", "T2 construct": "also called 1–254 MBP/protA; source: E. coli strain TB1, purified (amylose resin); not shown: MBP, N-terminal, kept", "T2 sequence": "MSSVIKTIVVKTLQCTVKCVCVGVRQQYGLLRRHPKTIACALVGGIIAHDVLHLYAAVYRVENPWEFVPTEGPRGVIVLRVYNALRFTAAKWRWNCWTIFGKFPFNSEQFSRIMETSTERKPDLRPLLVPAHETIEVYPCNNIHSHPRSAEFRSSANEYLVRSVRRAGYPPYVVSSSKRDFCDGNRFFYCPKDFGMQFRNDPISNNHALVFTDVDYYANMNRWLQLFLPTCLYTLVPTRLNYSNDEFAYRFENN", "experiment": "pull-down; MBP fusion protein (1 µM) held on amylose resin, His-tagged protein (1 µM) in vitro translated in rabbit reticulocyte lysate; room temperature, 4 hrs; no lipids; Western blot with anti-His; signals given as % of FL to FL protein A self-interaction", "conditions": "one partner purified"}, "[3]": {"molecular_target": "the molecule itself", "experiment": "cross-linking; MBP-tagged protein in cross-linking buffer (10 mM HEPES pH 7.4, 50 mM MgCl2, 1 mM DTT, 1% glycerol, 0.03% glutaraldehyde), then 10% SDS-PAGE"}, "[4]": {"molecular_target": "T3, MBP-protA fragment aa 255–480 (Wuhan nodavirus (WhNV), UniProt Q3KSM3 255-480)", "T3 construct": "source: E. coli strain TB1, purified (amylose resin); not shown: MBP, N-terminal, kept", "T3 sequence": "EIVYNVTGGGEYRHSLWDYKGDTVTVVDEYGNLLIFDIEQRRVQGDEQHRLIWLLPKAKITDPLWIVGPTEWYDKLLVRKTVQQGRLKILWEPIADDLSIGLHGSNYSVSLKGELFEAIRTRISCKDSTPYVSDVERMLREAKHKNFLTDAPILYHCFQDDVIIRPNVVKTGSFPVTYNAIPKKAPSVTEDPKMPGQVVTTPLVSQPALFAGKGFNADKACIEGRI", "experiment": "pull-down; MBP fusion protein (1 µM) held on amylose resin, His-tagged protein (1 µM) in vitro translated in rabbit reticulocyte lysate; room temperature, 4 hrs; no lipids; Western blot with anti-His; signals given as % of FL to FL protein A self-interaction", "conditions": "one partner purified"}},
  "data": [
    {"binder": "His-protA fragment aa 481–659, in vitro translated (domain or fragment, source: in vitro translated in nuclease-treated rabbit reticulocyte lysates) EKVRNVTKFPIKYVRYAAEFVKLVIPETIAGTGVPNSIGMIREEQDKVAQRARFDRVAPIMSTQTENSIKAFIKTEMYAAAKAPRNISTMAPEITIQSSAYSLPMAKIFKKIPWYCPGKNPKEITLRLAEVCLQDPDHELEEGDYTCMDGTQSPDYSDLLLLPIYMRYFAKQYRGQFKN", "values": [
      {"measurement": "homotypic interaction, % of FL to FL protein A self-interaction", "setting": "[1]", "value": 2, "unit": "%"}
    ]},
    {"binder": "His-protA fragment aa 1–254, in vitro translated (domain or fragment, also called 1–254 His/protA; wt protein A fragment aa 1–254; source: in vitro translated in nuclease-treated rabbit reticulocyte lysates) MSSVIKTIVVKTLQCTVKCVCVGVRQQYGLLRRHPKTIACALVGGIIAHDVLHLYAAVYRVENPWEFVPTEGPRGVIVLRVYNALRFTAAKWRWNCWTIFGKFPFNSEQFSRIMETSTERKPDLRPLLVPAHETIEVYPCNNIHSHPRSAEFRSSANEYLVRSVRRAGYPPYVVSSSKRDFCDGNRFFYCPKDFGMQFRNDPISNNHALVFTDVDYYANMNRWLQLFLPTCLYTLVPTRLNYSNDEFAYRFENN", "values": [
      {"measurement": "homotypic interaction, % of FL to FL protein A self-interaction", "setting": "[2]", "value": 73, "unit": "%"}
    ]},
    {"binder": "MBP-tagged full-length (FL) WhNV protein A (natural protein, also called MBP-protA; 1–1014 MBP/protA; source: E. coli strain TB1, purified (amylose resin); not shown: MBP, N-terminal, kept) MSSVIKTIVVKTLQCTVKCVCVGVRQQYGLLRRHPKTIACALVGGIIAHDVLHLYAAVYRVENPWEFVPTEGPRGVIVLRVYNALRFTAAKWRWNCWTIFGKFPFNSEQFSRIMETSTERKPDLRPLLVPAHETIEVYPCNNIHSHPRSAEFRSSANEYLVRSVRRAGYPPYVVSSSKRDFCDGNRFFYCPKDFGMQFRNDPISNNHALVFTDVDYYANMNRWLQLFLPTCLYTLVPTRLNYSNDEFAYRFENNEIVYNVTGGGEYRHSLWDYKGDTVTVVDEYGNLLIFDIEQRRVQGDEQHRLIWLLPKAKITDPLWIVGPTEWYDKLLVRKTVQQGRLKILWEPIADDLSIGLHGSNYSVSLKGELFEAIRTRISCKDSTPYVSDVERMLREAKHKNFLTDAPILYHCFQDDVIIRPNVVKTGSFPVTYNAIPKKAPSVTEDPKMPGQVVTTPLVSQPALFAGKGFNADKACIEGRIEKVRNVTKFPIKYVRYAAEFVKLVIPETIAGTGVPNSIGMIREEQDKVAQRARFDRVAPIMSTQTENSIKAFIKTEMYAAAKAPRNISTMAPEITIQSSAYSLPMAKIFKKIPWYCPGKNPKEITLRLAEVCLQDPDHELEEGDYTCMDGTQSPDYSDLLLLPIYMRYFAKQYRGQFKNLYNQIYKQRATTSSGVPYNPEMTIRSGSSITTHAGTLNNAFNIYAALRDMGYDETTAWDKVGAVFGDDSLNANHQGEFHSYIEHVTKVLGMRYKSNLRERGQPVLFLGRYFVDPITSYDSFADPMRTIGKLHATANKNVSVEQGAANKAHGYITTDSKTPIIGAWARRVLEITKKKFKNGTGEEQYRCSNAWPQKDEAAIRAAMAAVLEVDEAQLIAQNEAVLKVNSLDQFPVVFDTYYDHKQLAEVDGQLVGTDLHIKEEDERQPETSIDSVPSTGPPPSNGDPNAGGKPTDGPSKGKRKVKGRRPRTAGDPATLRLTDAGSSRRVKPPRKLRPEAKRGGRPIETLVFKNSSLS", "values": [
      {"measurement": "stoichiometry N", "setting": "[3]", "value": 2}
    ]},
    {"binder": "His-protA fragment aa 255–480, in vitro translated (domain or fragment, source: in vitro translated in nuclease-treated rabbit reticulocyte lysates) EIVYNVTGGGEYRHSLWDYKGDTVTVVDEYGNLLIFDIEQRRVQGDEQHRLIWLLPKAKITDPLWIVGPTEWYDKLLVRKTVQQGRLKILWEPIADDLSIGLHGSNYSVSLKGELFEAIRTRISCKDSTPYVSDVERMLREAKHKNFLTDAPILYHCFQDDVIIRPNVVKTGSFPVTYNAIPKKAPSVTEDPKMPGQVVTTPLVSQPALFAGKGFNADKACIEGRI", "values": [
      {"measurement": "homotypic interaction, % of FL to FL protein A self-interaction", "setting": "[4]", "value": 55, "unit": "%"}
    ]}
  ]
}
